Assay [1] has as its target HLA-B*08:01. The assay can be described thus: IEDB peptide-MHC binding, purified MHC/competitive/radioactivity; filed as Kd, often an IC50 or EC50 that approximates it; ≥ and ≤ were set here for values at or beyond the usual limits of such assays.
Assay [2] deals with HLA-B*57:01. The description is as above.
Assay [3] addresses HLA-A*26:01. Briefly: IEDB peptide-MHC binding, purified MHC/direct/fluorescence; filed as Kd, often an IC50 or EC50 that approximates it; ≥ and ≤ were set here for values at or beyond the usual limits of such assays.
Assay [4] has as its target HLA-A*69:01. Described as above.
In assay [5] the target is HLA-A*03:01. The description is as above.
Assay [6] deals with HLA-A*01:01. Described as above. Particulars: source organism: Toxoplasma gondii.
The target in assay [7] is HLA-B*08:01. The description is as above.
For assay [8], the target named is HLA-B*58:01. Described as above. Conditions: source organism: Toxoplasma gondii.
Assay [9] addresses HLA-A*02:01. Described as above.
Assay [10] concerns the target HLA-A*24:03. Described as above.
Assay [11] addresses HLA-B*15:01. The description is as above.
Assay [12] has as its target HLA-B*40:01. The assay is described as above.
Assay [13] addresses HLA-B*44:02. Described as above.
Assay [14] addresses HLA-B*07:02. The description is as above.
The target of assay [15] is HLA-A*11:01. The assay is described as above.
For assay [16], the target named is HLA-B*27:05. The description is as above.
In assay [17] the target is HLA-A*11:01. The assay can be described thus: IEDB peptide-MHC binding, purified MHC/competitive/fluorescence; ≥ and ≤ were set here for values at or beyond the usual limits of such assays.
Assay [18] has as its target HLA-A*24:02. The description is as above.
Assay [19] deals with HLA-A*02:03. Briefly: IEDB peptide-MHC binding, purified MHC/competitive/radioactivity; filed as Kd, often an IC50 or EC50 that approximates it; ≥ and ≤ were set here for values at or beyond the usual limits of such assays. Conditions: source organism: Dengue virus 1 Brazil/97-11/1997.
Assay [20] has as its target HLA-A*02:01. The assay can be described thus: IEDB peptide-MHC binding, purified MHC/competitive/fluorescence; ≥ and ≤ were set here for values at or beyond the usual limits of such assays.
The target in assay [21] is HLA-B*15:01. Briefly: IEDB peptide-MHC binding, purified MHC/competitive/radioactivity; filed as Kd, often an IC50 or EC50 that approximates it; ≥ and ≤ were set here for values at or beyond the usual limits of such assays. Conditions: source organism: Dengue virus 1 Brazil/97-11/1997.
Assay [22] concerns the target HLA-B*51:01. The description is as above. Particulars: source organism: Vaccinia virus WR.
The target in assay [23] is HLA-B*54:01. The assay is described as above.
The target in assay [24] is HLA-B*53:01. The assay is described as above. Conditions: source organism: Vaccinia virus WR.
The target of assay [25] is HLA-B*35:01. Described as above. Conditions: source organism: Vaccinia virus WR.
Assay [26] addresses HLA-B*07:02. The assay is described as above. Conditions: source organism: Vaccinia virus WR.
The target in assay [27] is HLA-B*48:01. Briefly: IEDB peptide-MHC binding, purified MHC/direct/fluorescence; filed as Kd, often an IC50 or EC50 that approximates it; ≥ and ≤ were set here for values at or beyond the usual limits of such assays. Conditions: source organism: Yellow fever virus.
Assay [28] has as its target HLA-A*03:01. The assay can be described thus: IEDB peptide-MHC binding, purified MHC/competitive/fluorescence; filed as Kd, often an IC50 or EC50 that approximates it; ≥ and ≤ were set here for values at or beyond the usual limits of such assays.
Assay [29] deals with HLA-A*32:01. The assay can be described thus: IEDB peptide-MHC binding, purified MHC/competitive/radioactivity; filed as Kd, often an IC50 or EC50 that approximates it; ≥ and ≤ were set here for values at or beyond the usual limits of such assays. Particulars: source organism: Vaccinia virus WR.
For assay [30], the target named is HLA-A*31:01. The assay can be described thus: IEDB peptide-MHC binding, purified MHC/direct/fluorescence; filed as Kd, often an IC50 or EC50 that approximates it; ≥ and ≤ were set here for values at or beyond the usual limits of such assays. Conditions: source organism: Giardia lamblia ATCC 50803.
For assay [31], the target named is HLA-B*18:01. The assay is described as above. Particulars: source organism: dengue virus type 1.
Assay [32] deals with HLA-B*39:01. Briefly: IEDB peptide-MHC binding, purified MHC/competitive/fluorescence; filed as Kd, often an IC50 or EC50 that approximates it; ≥ and ≤ were set here for values at or beyond the usual limits of such assays. Particulars: source organism: Yersinia bercovieri ATCC 43970.
For assay [33], the target named is HLA-A*02:01. The assay is described as above. Particulars: source organism: Yersinia bercovieri ATCC 43970.
For assay [34], the target named is HLA-B*15:01. The description is as above. Conditions: source organism: Yersinia bercovieri ATCC 43970.
The mark [35] stands for this setting: source organism: Vaccinia virus WR.
Where [36] appears, read: source organism: Dengue virus 1 Brazil/97-11/1997.
Setting [37] is: source organism: Toxoplasma gondii.
Where [38] appears, read: source organism: Sudan ebolavirus.
The mark [39] stands for this setting: source organism: Zaire ebolavirus.
Where [40] appears, read: source organism: Dengue virus 4 Philippines/H241/1956.
The mark [41] stands for this setting: source organism: Vaccinia virus.
[42] abbreviates: source organism: Vaccinia virus Copenhagen.
Where [43] appears, read: source organism: Giardia lamblia ATCC 50803.
Where [44] appears, read: source organism: Dengue virus 3 Martinique/1243/1999.

With ALMRRIAVV, in assay [1] (setting [35]), the Kd was found to be 1350 nM.

Consider ATRLENIMW, for which, in [2] (setting [36]), the equilibrium dissociation constant (Kd) came to 2.31 nM.

Turning to AYMDRKSFK, the Kd in [3] (setting [37]) was at least 20000 nM; in [4] (setting [37]), at least 20000 nM; in assay [5] (setting [37]), 14700 nM; in [6], at least 20000 nM; in [7] (setting [37]), at least 20000 nM; in assay [8], at least 20000 nM. The dissociation constant (Kd) is at least 20000 nM in assay [9] (setting [37]); 2430 nM in assay [10] (setting [37]); at least 20000 nM in [11] (setting [37]); at least 20000 nM in assay [12] (setting [37]); at least 20000 nM in [13] (setting [37]); at least 20000 nM in assay [14] (setting [37]). The Kd was at least 5000 nM in [15] (setting [37]) and at least 20000 nM in assay [16] (setting [37]).

In assay [17] (setting [38]), CPGDYAFHK displayed a half-maximal inhibitory concentration (IC50) of 55300 nM.

As for DAVLYYHMM, in [18] (setting [39]), the IC50 turned out to be 3140 nM.

Consider DNTQSEHSF, for which, in assay [18] (setting [39]), the IC50 was found to be 49700 nM.

As for DYRFRFRSV, the Kd in assay [1] (setting [35]) came out at 683 nM.

Regarding EYRFLVINR, the IC50 in assay [18] (setting [35]) was 57600 nM; in assay [17] (setting [35]), at least 490000 nM.

Turning to FFKFSFMYI, in assay [1] (setting [35]), the equilibrium dissociation constant (Kd) is 840 nM.

Take GLNSRSTSL: the Kd came out at 14.7 nM in [1] (setting [36]) and 16.4 nM in assay [19].

For GSRAIWYMW, the dissociation constant (Kd) in assay [2] (setting [40]) was 1.72 nM.

Consider GTSITQKGII, for which the Kd in assay [2] (setting [36]) came out at 9330 nM.

For the sequence HRRLRNKRL, the Kd in assay [1] (setting [35]) was 28.4 nM.

Turning to ICGLRQLAN, in assay [18] (setting [39]), the IC50 stood at 16200 nM.

Consider IILFQRTFS, for which the concentration for half-maximal inhibition (IC50) is at least 294000 nM in [18] (setting [39]) and at least 81400 nM in [20] (setting [39]).

For IMAIGIVSIL, the Kd in assay [1] (setting [36]) came to 445 nM; in [21], 27.2 nM.

As to IPIGMQFDKV, the Kd was 394 nM in [22]; 40.4 nM in [23] (setting [35]); 590 nM in assay [24]; 5280 nM in assay [25]; 4910 nM in assay [26].

Take IPSTVKTNLY: the Kd in [22] is at least 69600 nM; in [23] (setting [35]) it was 10300 nM; in assay [24], 213 nM; in assay [25] it was 248 nM; in [26] it was at least 25600 nM.

As to KDVSYNDYF, the IC50 in assay [18] (setting [41]) turned out to be 41400 nM.

For KMRPMFAVGL, the Kd in [1] (setting [36]) is 4580 nM.

Consider KRVVASLMR, for which, in [27], the Kd is at least 20000 nM.

For KTSLCLMMIL, in assay [2] (source organism: Dengue virus 3 Sri Lanka/1266/2000), the Kd was determined as 9.68 nM.

In the case of LNLSKFMMV, in assay [1] (setting [35]), the Kd came out at 102 nM.

MCISLSTAI: the Kd in assay [23] (source organism: Mammarenavirus lassaense) is 601 nM.

Consider MKMKKKTWL, for which, in [1] (setting [40]), the Kd is 62.9 nM.

With MLILNFCKL, the Kd in assay [1] (setting [42]) turned out to be 3.91 nM.

The sequence MTIASVPTSR showed an equilibrium dissociation constant (Kd) in assay [28] (source organism: Influenza A virus (A/equine/California/8560/2002(H3N8))) of 1010 nM.

Turning to NFAEGVIAF, the concentration for half-maximal inhibition (IC50) in [18] (setting [38]) came out at 4180 nM.

For NFMQRIISL, in assay [1] (setting [35]), the Kd stood at 1490 nM.

In [17] (setting [41]), NNIGIEYSK had a half-inhibitory concentration (IC50) of at least 173000 nM.

For the sequence RASFIEVKTC, the Kd in [2] (setting [36]) was 53.7 nM.

For the sequence RSMYRIPPF, the equilibrium dissociation constant (Kd) in assay [1] (setting [35]) is 157 nM; in [29] it was 0.726 nM.

In the case of RTDPVIDNI, the dissociation constant (Kd) in assay [30], in assay [3] (setting [43]), in [4] (setting [43]), in assay [5] (setting [43]), in [7] (setting [43]) and in [9] (setting [43]) was at least 20000 nM in each case. Further, the Kd in [10] (setting [43]) is 2750 nM; in assay [11] (setting [43]), at least 20000 nM; in [12] (setting [43]) it was at least 20000 nM; in assay [13] (setting [43]), at least 20000 nM; in assay [14] (setting [43]) it was at least 20000 nM; in [15] (setting [43]), at least 20000 nM. This sequence gave a Kd in assay [16] (setting [43]) of at least 20000 nM.

Turning to RWGGTCRIL, the 50% inhibitory concentration (IC50) in [18] (setting [38]) is 230 nM. This counts as sub-micromolar.

In the case of SEHTGREIV, the dissociation constant (Kd) was 2040 nM in [31] and at least 20000 nM in [13] (source organism: dengue virus type 1).

SETAGNNNT: the 50% inhibitory concentration (IC50) in assay [20] (setting [39]) is at least 98400 nM; in assay [17] (setting [39]), at least 363000 nM.

With SFQQTNAMV, the IC50 in assay [18] (setting [39]) is 18100 nM; in [20] (setting [39]) it was 31700 nM.

With SILSSFFSL, the Kd in [1] (setting [35]) worked out at 229 nM.

SNTTGKLIW yielded an IC50 in assay [18] (setting [39]) of 9970 nM.

In assay [17] (setting [35]), VLKPSVIEE showed a half-maximal inhibitory concentration (IC50) of at least 257000 nM.

Turning to VLRTKITSL, the equilibrium dissociation constant (Kd) in assay [1] (setting [35]) was 0.92 nM.

In the case of VMAVGLVSIL, the equilibrium dissociation constant (Kd) in assay [1] (setting [44]) turned out to be 154 nM.

As to VMLIGIEIL, the IC50 in assay [18] (setting [35]) was found to be 37600 nM; in assay [20] (setting [35]), 161 nM.

In [17] (setting [35]), VPFIRNPNK registered a half-maximal inhibitory concentration (IC50) of 47200 nM.

VVLDLFARK returned an equilibrium dissociation constant (Kd) in [28] (source organism: Shigella flexneri 2a str. 301) of 175 nM.

In the case of WCRLKFHIV, the Kd in assay [1] (setting [42]) amounted to 81.9 nM.

Turning to WFSRENSYSG, the equilibrium dissociation constant (Kd) in assay [2] (setting [44]) came out at 7000 nM.

WQMFMKVTV: the dissociation constant Kd in assay [32] turned out to be 389 nM; in assay [33], 15.6 nM; in [34], 1290 nM.

Consider WTSGASTSQE, for which the equilibrium dissociation constant (Kd) in [2] (setting [36]) was 206 nM.

In general, Kd refers to a measure of binding affinity in units of concentration. A word on the IC50: it is the point on the concentration scale where inhibition reaches its midpoint. A high value points to lower potency.

The values above are taken from the Immune Epitope Database (IEDB).
